“Also recorded” adds a separate entry of the source. Like-named read-outs stand apart in the source and are kept apart here. *1 amine or outer side, *2 acyl side, *3 side chain or, on linkers, in order; H or OH if unused. Bridges are numbered along the chain shown (N, C = ends). The star is where a group is joined. fluorescein = fluorescein: a label attached as NHS-fluorescein acylation on the lysine side chain (K*); pXylylene = c1cc(C[*:2])ccc1C[*:1]; Cysteamide = C(CS[*:3])N[*:1]; 4‑pentynyl = C#CCCC*
T1: cNPF1Flu
T1 chain: cyclo(YNPFEEGK(fluorescein))

T2: 1-PX (thioether 1-C via pXylylene (inferred))
T2 chain: {4‑pentynyl}-CYNPFEE-Cysteamide

T3: 3-OX (bridge 1-C; not fully specified (bridges))
T3 chain: {4‑pentynyl}-CNPFE-Cysteamide

T4: 1-MX (thioether 1-C via meta‑xylene)
T4 chain: {4‑pentynyl}-CYNPFEE-Cysteamide

T5: 4-OX (bridge 1-C; not fully specified (bridges))
T5 chain: {4‑pentynyl}-CNPFEE-Cysteamide

T6: cNPF1 (backbone cyclic)
T6 chain: YNPFEEGG

T7: 4-MX (bridge 1-C; not fully specified (bridges))
T7 chain: {4‑pentynyl}-CNPFEE-Cysteamide

T8: 5-OX (linker 1-6 via ortho‑xylene (inferred))
T8 chain: Ac-CNPFEC-OH

T9: 4-PX (bridge 1-C; not fully specified (bridges))
T9 chain: {4‑pentynyl}-CNPFEE-Cysteamide


Key:
HeLa cells = test: Cell-based transferrin; details: 50 μM during 60-min pulse and 30-min chase
cNPF1Flu = biological target: T1, cNPF1Flu; test: fluorescence polarization
Flu-1-PX [1] = biological target: Flu-1-PX
1-PX = biological target: T2, 1-PX; test: fluorescence polarization competition
3-OX = biological target: T3, 3-OX; test: fluorescence polarization competition
1-MX = biological target: T4, 1-MX; test: fluorescence polarization competition
4-OX = biological target: T5, 4-OX; test: fluorescence polarization competition
cNPF1 = biological target: T6, cNPF1; test: fluorescence polarization competition
4-MX = biological target: T7, 4-MX; test: fluorescence polarization competition
5-OX = biological target: T8, 5-OX; test: fluorescence polarization competition
4-PX = biological target: T9, 4-PX; test: fluorescence polarization competition
Flu-4-PX [2] = biological target: Flu-4-PX
Flu-5-OX [3] = biological target: Flu-5-OX
Flu-3-OX [4] = biological target: Flu-3-OX
Flu-5-OX [5] = biological target: Flu-5-OX; remark: listed apart in the source
Flu-1-PX [6] = biological target: Flu-1-PX; remark: listed apart in the source
Flu-3-OX [7] = biological target: Flu-3-OX; remark: listed apart in the source
Flu-4-PX [8] = biological target: Flu-4-PX; remark: listed apart in the source

Molecule | effect on trafficking/recycling of Tf-488 (HeLa cells) | Kd (cNPF1Flu) [µM] | Kd (Flu-1-PX [1]) [µM] | IC50 (1-PX) [µM] | IC50 (3-OX) [µM] | IC50 (1-MX) [µM] | IC50 (4-OX) [µM] | IC50 (cNPF1) [µM] | IC50 (4-MX) [µM] | IC50 (5-OX) [µM] | IC50 (4-PX) [µM] | Kd (Flu-4-PX [2]) [µM] | Kd (Flu-5-OX [3]) [µM] | Kd (Flu-3-OX [4]) [µM] | Kd (Flu-5-OX [5]) [µM] | Kd (Flu-1-PX [6]) [µM] | Kd (Flu-3-OX [7]) [µM] | Kd (Flu-4-PX [8]) [µM]
COc1cc(NC(C)CCCN)c2ncccc2c1 (stereo not drawn) [primaquine] | increased signal following the chase, consistent with impaired recycling of internalized Tf-488; also recorded: inhibition of recycling | – | – | – | – | – | – | – | – | – | – | – | – | – | – | – | – | –
EHD1-EH EH domain (protein) VGKDKPTYDEIFYTLSPVNGKITGANAKKEMVKSKLPNTVLGKIWKLADVDKDGLLDDEEFALANHLIKVKLEGHELPADLPPHLVPPSKRRHE | – | 3 | 6 | 27.1 | 76.5 | 68.8 | 62.8 | 55.5 | 88.1 | 34 | 38.9 | 1.8 | 1.6 | 4.5 | 7.3 | 1.1 | 14.6 | 8.1

Source: article PMC5844793 (Bioorganic & medicinal chemistry, 2017)
